In patent US7378234:

Biological target: soluble HLA-B*0702 (human)

SPGALVVGVI (modifications not checked) [Ipep 1838]
% competition: 30%
